In the DeepSol protein solubility set:

Test: soluble on expression in E. coli; label from the status in PepcDB or PDB records

Row | Sequence | soluble on expression in E. coli
1 | RRLETQKEAEANRGYGKPSLGGPFHLEDMYGNEFTEKNLLGKFSIIYFGFSNCPDICPDELDKLGLWLNTLSSKYGITLQPLFITCDPARDSPAVLKEYLSDFHPSILGLTGTFDEVKNACKKYRVYFSTPPNVKPGQDYLVDHSIFFYLMDPEGQFVDALGRNYDEKTGVDKIVEHVKSYVPAEQRAKQKEAWYSFLFK | soluble
2 | MGSDKIHHHHHHMSRVGFTTSIPVEVILAAGKTPVDLNNVFINSLSPQSMVDLAEEEGYPRNCCGWIKGLYATSLNYDMEALIAVMHGDCSNTQALMETLQLRNKKIIPFAFPFDRERSQLEAQVDKLMQFFEVDMEEVLKARARLEKIRSLCRELDRMTWRDNLVTGQENHYYLLCSSDFNGNPAEFEAELHSFVEEAGKRRPIQEEVRLAYIGVPPIFTDLHQLLELMGARVVFNEVQRQFSMPVESSDIIEQYLHYTYPYGAFARLEDIEEQLAVRDVQGVIHYTQTFCFRQIEDLIFRERLKIPFLTLEGDRPGKVDARSRMRLESFVSMLKK | not soluble
3 | MIPLPSGTKIWLVAGITDMRNGFNGLAAKVQTTLKDDPMSGHVFIFRGRNGSQVKLLWSTGDGLCLLTKRLERGRFAWPSARDGKVFLTPAQLAMLLEGIDWRQPKRLLTSLTML | not soluble
4 | MGSDKIHHHHHHMDPIEFIQKSASSIASTMHKLKLKYNPFSEKPIRGNTKFFVGRVSELREIGEILGSALHGSVANAAIVGTKGIGKSSMLNIIYYATKKQGHWVVEMTASQVTPRQFLIQLLYNILTENIITMSGTIKSDYMEHSSRILDMYRKLNNYGDKVPIHYPRERIERDLEYLINEVKSPDKLCIILIDEADQFAKKSCLSLLQFFHSFLYEEGILTFMAGSPTLMDDLTKISPPIKDRIPKIINMPPLSKDESYDLIRRRLEDAHIDGAEEFEPFTEEAIHKIVEECDGIPRKIIMTCSESISIAIRKGLTKIDEKVVKEAMHSLGISVGHQILNHLTPAQSEIVRAMAELGGSATVTQLAEYLKKSPSTIGTHLSDIYEMGYIYKEREGNNVYYKLSKELRDVLIGEDDELEM | not soluble
5 | MAHHHHHHMRADSVSQTRKQQPNSSALGDDGDDEGANGEVEGRPMRQCMHITDKEIVIKLQNWFCDSNEIAGEWEAAGKTESRRSGASSNLEISQTIPFHSSHKSSLGKSASSSTLRPSNTCIPADLSAPLDGAPSLEVSTTSETRKIHSARGPRADERASRPYRTPSTDAVRYCAVYLRHFATIHQQHPYENSRQEQLLPTLAPEPLTAPLVALLTPWERNFIYRDILGQTEEQVSRAMEIVEHSPNMSYTYPTPFLKVSGISRVLLVEPPAAERVALLLRVMRAAEVLQVPSLRSLCAAWCADFIVRASYGARDHFEAAALVRRCFQVQNDWSRKEMDCLKLENEWPVNEEEY | not soluble
6 | ECPVFEPSWAEFRDPLGYIAKIRPIAEKSGICKIRPPADWQPPFAVEVDNFRFTPRIQRLNEL | not soluble
7 | MKIDYVSDLHINHWIPWNVNQIKWEKRTREIVNRLISNGNGEVLVIAGDFTEWNQQTLWVLDEAAKQYEKVYFTYGNHDLYLLSKSQKRKYSDSLGRLNDLIQKAADMKNVTPLIKTTETYKGKVFAGDVMWYLPKGIEGWDFFKGVSNDSNYIWLNGYNKVDGVRAMWKESMDWYETLENTQVDVFVSHVPPVHNPYSPFEPNTCYMVDVPFINAKHWVCGHDHLQAEFDKDGTSFHMNCIGYPYDYDNYPSVNVIPGEEVDSYKTFELKTFEIMAGDPLEHHHHHH | not soluble
8 | MKVAIVHNSEEKSKQVTKQLTTLLEQNQIQIDNRQPELVISVGGDGTLLSAFHRFNHLLNEVSFLGVHTGHLGFYTDWRDYELKELVESLCIHREKSTSYPLLDVRIRFRDGKPDKHFLALNESTIKRGNRTMVGDVFIKDELFERFRGDGLSISTPTGSTAYNKSIGGAVLHPSINAFQLTEIASLNNRVFRTLGSPIVIAHTEWLEIKLQESDDYFVTVDQLDIYQENIASVCYRIADERIHFASYRHMHFWHRVKDAFIGEDLEHHHHHH | soluble
9 | MDDYKRILITKILKNEVTEALGCTEVGLIGYAVSLCNISDPFSIEKIELTLNNGSFKNAYAVGVPNTKKYGILPAVVGGLLGDHKNKLLVFNGIKYSQKLEDFIKERLKIRVINSPLYCGVKIKDNSGNTFESLIKDNHLNVVIPKINNKLISEINGSEKEEYKNLELLDFLEYIDEIPEEIIQLVEKTIYTNNNLIKGDFLNFGNDCLSNMVNKTTSACNTRMIGENMPAMSVAKSGNMGIMATLPIIAYDYSNEQNQEKLIKSILLSVLVTIYATYKSSYLSSMCGCVSKGGMGAVIGLCYYKNGKNIKKLDSAARTFTANLPGIICDGGKVGCALKLASGCFAAYSSLFVDISYENGIVGKNFKECVENISEISKIMGDLDSDIVKIMSKKEI | not soluble
10 | MLLENFYKIIHIKEREDGKQEIEIELNPGHVLYQGHFPGQPVVPGVCTLQIIKESAEQIASQPLQYVQIASSKFLSAINPLETPLLQLFIRLEKTEEHLFKLQAEGICNGKEFIKLKAVLMASKYQLEHHHHHH | soluble
11 | MAAINTKVKKAVIPVAGLGTRMLPATKAIPKEMLPLVDKPLIQYVVNECIAAGITEIVLVTHSSKNSIENHFDTSFELEAMLEKRVKRQLLDEVQSICPPHVTIMQVRQGLAKGLGHAVLCAHPVVGDEPVAVILPDVILDEYESDLSQDNLAEMIRRFDETGHSQIMVEPVADVTAYGVVDCKGVELAPGESVPMVGVVEKPKADVAPSNLAIVGRYVLSADIWPLLAKTPPGAGDEIQLTDAIDMLIEKETVEAYHMKGKSHDCGNKLGYMQAFVEYGIRHNTLGTEFKAWLEEEMGIKK | soluble
12 | MTHKGSCHCGRIAFEVDGEPGSAMACNCSICQRKGSLLWFVPREHLHLLTPDENASTYTFNKHVIRHRFCPVCGMHPYGEGTGADGKAMVAINIRCLEDIDLAAVPVTQFDGRSRLEHHHHHH | soluble
13 | MGSDKIHHHHHHMETLRILHTNDLHSHFEHFPKIRRYLKQVQETAAADQVLTFDAGDFMDRSHPLSDATEGQANIRLMNDFHYDAITIGNNEGISNPHAVLERLFDHANFPVLLSNLREEDESWPAWANDYKIIKTKKGTRLALVGLTAAYPMTYGPNHWQIKMLGETMDRVLPEIAGQYDCLILLTHVGLRMDQWLAKHYPEIDLIVGGHSHTLLEKGVKEGRTWITQTDKWGNYVGDISLEIGDDHKIISIKPTTVPVADLPSQAGDEAEIAALYEEGQKMLQSRHVADLPEKFKDDKLAAIDVSLEAIADFAGTDLAMLSTGLFLTPFKGGLINQFDLQHALPHPMHVVRTTLLGRDLWRLVMEVEKNRHFLENYPLVGMSFRGKIFGQVYYRGIKYDPMTRNVFVNGQLLDPAEEYRIAVLDHYVLIPFFPTLAIVGENEFLFPQFLREVVGDYLGRKYPMKKEGE | not soluble
14 | MSFSDHFSAVAASYAKARPRYPQRWFRYLARIVPDRQRVWDCATGNGQAAIALAEYFSEVIGSDASAAQVRQARSHPRVQYLVFPAEATPLAPASLDLITVAQAAHWFDLPQFYIEAQRLLRPGGVIALWGYGLGSLNPAIDHVFNHFYRDWLDPYWPPERQWVEQAYEGLSFPFEPLPTPTFSMQCDWTLFDLLAYLRTWSGVQQFQRQRGFDPVWAIAPELQRVWGDPQRYRRITWPLFAKVGRWQPLEHHHHHH | soluble
15 | QLERGQEKQALEQAILARTDAPYQSLASVLDNNDWREESVIGVKVQAEAKPEPLPVVLLDNQTFQGKVGYLAYQVVSVGQDPITLALLELGFVEGLRTRDSLPTVTTLTSPTNVTGRLYRKSMNPLSSELMPEMGEGIRVQNLNISELNELLNVELMPAVLQPDNLENWAYPFPWNPLPLTSAKHFGYAVQ | not soluble
16 | SIPALHRLVTVNMIPDASNDNIMVMRSYQIQATREILQRMKEMEASGLVQKEGGYIWHTTGSGKTVTSFKVAQLLASAPRIKNVLFIVDRIDLIDQTLENFKSFAYAHFKNRIKKVNGRELKRELKRKGSSQILLISVQGLTKAVKKGLENDDWNVIIMDEAHRSASGESVKLIKKALKKTTWFGFTGTPN | not soluble
17 | MDEEERTSSRGWMREFKYPSNLRDITEEARISLSSVAHFDELLHESSELAWRTNMSPPHRALFTFSKKTDISYVMLFLDYSRDESYCPQEVRIDLGDGTNDWWLKMYRRVDQPKGWVKIPIHDAFGNPLRVMSLQMTIMKNHEKGRDCVVRHFRVLGPFRSRYDSMNRMILGPSAVLEARPGTEPIKDAIMNHYQSMR | not soluble
